Assays:
[1] = molecular target: T1, human OX40 expressed on cells (human, UniProt P43489 29-277); assay: cell-based or functional assay
T1 sequence: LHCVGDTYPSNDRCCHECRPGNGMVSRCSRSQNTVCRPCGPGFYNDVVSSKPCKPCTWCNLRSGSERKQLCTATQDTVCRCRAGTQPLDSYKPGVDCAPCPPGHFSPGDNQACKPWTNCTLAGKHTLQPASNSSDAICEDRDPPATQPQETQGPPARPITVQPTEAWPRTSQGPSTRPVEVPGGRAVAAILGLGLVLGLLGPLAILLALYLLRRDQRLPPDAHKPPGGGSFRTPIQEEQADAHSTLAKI

[2] = molecular target: T1, human OX40 expressed on cells; assay: flow cytometry on CD3/CD28 bead activated human CD4+ T cells
Experimental: After 24 hours, the beads were removed with a magnet. Cells were counted and resuspended to 1.5×10⁶/mL. An aliquot of the cell suspension (100 μL) was used per stain. Test antibody was titrated in a 4-fold dilution series starting at 1 μg/mL. Cells were stained for 30 minutes and washed twice. A 1:250 dilution of (4 μg/mL) of Goat anti Human Fc specific-PE/well (Jackson ImmunoResearch) was added in 100 μL/well PBS containing 1% BSA. Cells were stained for an additional 30 minutes and washed twice, transferred to tubes and acquired using the BD LSR Fortessa flow cytometer, and analyzed using FACSDiva analysis software version 8.0.1.

[3] = molecular target: T2, rhesus OX40 expressed on 293 NF-κB reporter cells (rhesus macaque (Macaca mulatta), UniProt P43489 29-277 (human entry)); assay: flow cytometry on NF-κB reporter cells expressing rhesus OX40
T2 construct: also called cell-surface rhesus monkey OX40
T2 chain: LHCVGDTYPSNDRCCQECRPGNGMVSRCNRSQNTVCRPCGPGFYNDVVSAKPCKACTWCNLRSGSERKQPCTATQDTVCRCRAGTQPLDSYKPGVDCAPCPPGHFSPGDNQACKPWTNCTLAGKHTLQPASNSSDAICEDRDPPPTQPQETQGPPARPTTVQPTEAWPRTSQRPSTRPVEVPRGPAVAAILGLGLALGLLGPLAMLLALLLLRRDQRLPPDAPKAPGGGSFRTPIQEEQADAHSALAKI
Experimental: Rhesus macaque (Macaca mulatta) OX40 is identical to cynomolgus monkey (Macaca fascicularis) OX40 (SEQ ID NO:2) at the amino acid level. […] For the binding assay, cells were resuspended at 5 million cells per mL. 50 μL (250,000 cells)/well were transferred to each well of a 500 μL polypropylene 96-well plate (Nunc). A 2× stock of test anti-OX40 antibody or isotype control monoclonal antibody was prepared in a separate dilution plate at 666, 333, 111, 37.03, 12.34, 4.11, 0.457, 0.152, 0.0508, 0.0169, 0.00564 nM in culture media. The monoclonal antibodies (50 μL/well) were transferred into respective wells of the assay plate. Cells were incubated with the primary antibodies for 30 minutes at 4° C. and washed twice with 250 μL/well of PBS by centrifuging at 800 rpm for 3 minutes. Bound antibody was detected with Cy5-Donkey anti-human IgG (H+L) (Jackson ImmunoResearch) diluted to 2 μg/mL (50 μL/well) in PBS for 30 minutes at 4° C. Cells were washed once with 250 μL/well of PBS, resuspended in PBS containing 1% Formaldehyde and analyzed on a dual laser FACSCalibur (Becton Dickinson).

[4] = molecular target: T1, human OX40 expressed on cells; assay: flow cytometry on Jurkat NF-κB reporter cells expressing human OX40
Experimental: A Jurkat NF-κB reporter cell line expressing human OX40 protein was cultured in DMEM containing 10% FBS and penicillin/streptomycin (pen/strep). For the binding assay, each cell line was resuspended at 5 million cells per mL. 50 μL (250,000 cells)/well were transferred to each well of a 500 μL polypropylene 96-well plate (Nunc). A 2× stock of test anti-OX40 antibody or isotype control mAb was prepared in a separate dilution plate at 666, 333, 111, 37.03, 12.34, 4.11, 0.457, 0.152, 0.0508, 0.0169, 0.00564 nM in culture media. Each antibody (50 μL/well) was transferred into respective wells of the assay plate. Cells were incubated with the test anti-OX40 antibody or isotype control antibodies for 30 minutes at 4° C. and washed twice with 250 μL/well of PBS by centrifuging at 800 rpm for 3 minutes. Bound antibody was detected with Cy5-Donkey anti-human IgG (H+L) (Jackson ImmunoResearch) diluted to 2 μg/mL (50 μL/well) in PBS for 30 minutes at 4° C. Cells were washed once with 250 μL/well of PBS, resuspended in PBS containing 1% Formaldehyde and analyzed on a dual laser FACSCalibur (Becton Dickinson).

[5] = molecular target: T3, cynomolgus OX40 on activated cynomolgus monkey CD4+ T cells (cynomolgus monkey, UniProt P43489 29-277 (human entry)); assay: flow cytometry on PHA and IL-2 activated cynomolgus monkey CD4+ T cells
T3 chain: T2 chain
Experimental: Cynomolgus monkey whole blood was purchased from Worldwide Primates. For isolation of PBMCs, whole blood was diluted in a 1:1 ratio with PBS without magnesium and calcium (GE Healthcare). Diluted blood (30 mL) was layered under 13 mL of 95% Ficoll-Paque Plus (GE Healthcare) prepared in PBS without magnesium and calcium (GE Healthcare) in 50-mL conical tubes. The tubes were spun at 1000 g for 25 minutes. The interphase was collected and washed twice in 1×PBS. Cells were resuspended to 2×10⁶ cells/mL in RPMI/10% FBS. Cells were incubated for […] with […] phytohemagglutinin (PHA) (Sigma) and 100 U/mL recombinant human interleukin-2 (IL-2) (Proleukin®, Prometheus) in 6-well plates. After 24 hours, cells were washed, counted and resuspended to 2×10⁶/mL. 100 μL of the cells were used per stain. Test anti-OX40 antibody was titrated in a 4-fold dilution series starting at 1 μg/mL. Cells were stained for 30 minutes and washed twice. A 1:250 dilution (4 μg/mL) of Goat anti-Human IgG Fc specific-PE (Jackson ImmunoResearch) in 100 μL PBS containing 1% BSA was added per well. Cells were stained for an additional 30 minutes and washed twice, transferred to tubes and acquired using the BD LSR Fortessa flow cytometer, and analyzed using FACSDiva analysis software version 8.0.1.

[6] = molecular target: T1, human OX40 expressed on cells; assay: competition by flow cytometry on Jurkat-NF-κB-huOX40 cells; competitor: ALEXA FLUOR 647-labeled Hu3738 at 2 µg/mL
Experimental: Analysis was performed by flow cytometry.

B1: Hu3738 (antibody, V domains shown)
VH: EVQLVESGGGLVQPGGSLRLSCAASGFTFSRYGMSWVRQAPGKGLELVATINSNGGRTYYPDSVKGRFTISRDNAKNSLYLQMNSLRAEDTAVYYCAREGITTAYAMDYWGQGTTVTVSS
VL: DIVMTQSPDSLAVSLGERATINCKASQSVDYDGDSYMHWYQQKPGQPPKLLIYAASILESGVPDRFSGSGSGTDFTLTISSLQAEDVAVYYCQQSNEDPRTFGGGTKVEIKR
notes: Humanized antibody; also called exemplary anti-OX40 antibody Hu3738; Hu3738 VH.1b / Hu3738 VL.1
B1 was tested, and the “EC50 With Cross-linker (nM), NF-κB signaling” value [1] was 0.088 nM, the “EC50 Without Cross-linker (nM), NF-κB signaling” value [1] was 20 nM and the EC50 [2] was 53 pM. It also gave an EC50 [3] of 2100 pM, an EC50 [4] of 0.075 µg/mL and an EC50 [5] of 24 pM. The “IC50 (read off the curve)” value [6] was about 1 µg/mL.
